Measured values reported in US8304388B2, “Imaging agents” (GE Healthcare Limited, priority 2006, dated 2012).
Bridges are numbered along the chain shown (N, C = ends). Where no end group is shown, it is not given here. 99mTc‑Chelate II = tetraamine chelate labelled with 99mTc, on the N-terminus

What was measured:
collagen type I [1] = target: collagen type I (Homo sapiens, UniProt P02452+P08123); assay: In vitro binding to collagen type I coated plate
Protocol: A Maxisorp plate was incubated overnight at 4° C. with 50 μL or 100 μL 0.1 mg/mL collagen type I. All solutions were removed from the wells using a pipette. Wells were washed twice with 200 μL PBS, and then incubated with 150 μL PBS containing 0.1% BSA for 30 minutes at room temperature. Wells were washed five times with 200 μL PBS, and then 90 μL PBS was added to each well. 10 μL of neat (and two-fold serially diluted in PBS) Imaging Agent 1 was added to the wells in quadruplicate. The plate was sealed and incubated for 1 hour at 37° C.
The wells were washed seven times with ice-cold PBS (200 μL); and then the wells were transferred to a glass vial and counted (measured) for ^99mTc-activity using a Wallac counter for a 60 s count for each sample.
FIG. 1 illustrates binding of Imaging Agent 1 to collagen type I coated wells from one experiment.

collagen type I [2] = assay: saturation binding of 99mTc-labelled peptide to collagen type I coated Maxisorp wells, one-site hyperbola fit

collagen type I (Homo sapiens, UniProt P02452+P08123), sequence (P02452 162-1218 limits assumed): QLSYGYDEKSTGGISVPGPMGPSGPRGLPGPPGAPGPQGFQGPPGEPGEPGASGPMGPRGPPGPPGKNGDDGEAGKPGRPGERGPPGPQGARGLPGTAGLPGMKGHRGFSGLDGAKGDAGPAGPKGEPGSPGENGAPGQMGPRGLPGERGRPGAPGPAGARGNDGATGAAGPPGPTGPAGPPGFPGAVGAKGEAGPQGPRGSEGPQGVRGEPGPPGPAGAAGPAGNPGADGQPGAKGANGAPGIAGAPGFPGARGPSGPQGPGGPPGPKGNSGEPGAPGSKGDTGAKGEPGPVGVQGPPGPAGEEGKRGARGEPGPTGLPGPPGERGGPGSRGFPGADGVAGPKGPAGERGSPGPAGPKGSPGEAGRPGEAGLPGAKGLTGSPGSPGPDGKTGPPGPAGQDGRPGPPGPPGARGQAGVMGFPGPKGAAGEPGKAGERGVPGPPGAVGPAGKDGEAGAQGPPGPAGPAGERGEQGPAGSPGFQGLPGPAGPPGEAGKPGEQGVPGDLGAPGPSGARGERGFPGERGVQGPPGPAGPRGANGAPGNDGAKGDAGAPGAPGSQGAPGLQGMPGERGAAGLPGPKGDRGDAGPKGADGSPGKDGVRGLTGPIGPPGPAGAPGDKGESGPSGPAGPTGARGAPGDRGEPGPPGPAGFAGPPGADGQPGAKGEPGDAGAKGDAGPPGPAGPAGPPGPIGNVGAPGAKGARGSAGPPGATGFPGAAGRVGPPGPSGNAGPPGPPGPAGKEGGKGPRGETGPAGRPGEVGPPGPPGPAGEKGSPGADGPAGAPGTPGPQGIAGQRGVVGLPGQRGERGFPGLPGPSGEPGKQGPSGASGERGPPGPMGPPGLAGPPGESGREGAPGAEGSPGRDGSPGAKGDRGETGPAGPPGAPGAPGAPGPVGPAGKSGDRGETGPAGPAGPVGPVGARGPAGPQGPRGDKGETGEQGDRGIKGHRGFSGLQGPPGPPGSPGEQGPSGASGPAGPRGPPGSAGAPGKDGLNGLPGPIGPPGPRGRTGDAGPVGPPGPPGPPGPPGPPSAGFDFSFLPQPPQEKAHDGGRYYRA
collagen type I (Homo sapiens, UniProt P02452+P08123), sequence (P08123 80-1119 limits assumed): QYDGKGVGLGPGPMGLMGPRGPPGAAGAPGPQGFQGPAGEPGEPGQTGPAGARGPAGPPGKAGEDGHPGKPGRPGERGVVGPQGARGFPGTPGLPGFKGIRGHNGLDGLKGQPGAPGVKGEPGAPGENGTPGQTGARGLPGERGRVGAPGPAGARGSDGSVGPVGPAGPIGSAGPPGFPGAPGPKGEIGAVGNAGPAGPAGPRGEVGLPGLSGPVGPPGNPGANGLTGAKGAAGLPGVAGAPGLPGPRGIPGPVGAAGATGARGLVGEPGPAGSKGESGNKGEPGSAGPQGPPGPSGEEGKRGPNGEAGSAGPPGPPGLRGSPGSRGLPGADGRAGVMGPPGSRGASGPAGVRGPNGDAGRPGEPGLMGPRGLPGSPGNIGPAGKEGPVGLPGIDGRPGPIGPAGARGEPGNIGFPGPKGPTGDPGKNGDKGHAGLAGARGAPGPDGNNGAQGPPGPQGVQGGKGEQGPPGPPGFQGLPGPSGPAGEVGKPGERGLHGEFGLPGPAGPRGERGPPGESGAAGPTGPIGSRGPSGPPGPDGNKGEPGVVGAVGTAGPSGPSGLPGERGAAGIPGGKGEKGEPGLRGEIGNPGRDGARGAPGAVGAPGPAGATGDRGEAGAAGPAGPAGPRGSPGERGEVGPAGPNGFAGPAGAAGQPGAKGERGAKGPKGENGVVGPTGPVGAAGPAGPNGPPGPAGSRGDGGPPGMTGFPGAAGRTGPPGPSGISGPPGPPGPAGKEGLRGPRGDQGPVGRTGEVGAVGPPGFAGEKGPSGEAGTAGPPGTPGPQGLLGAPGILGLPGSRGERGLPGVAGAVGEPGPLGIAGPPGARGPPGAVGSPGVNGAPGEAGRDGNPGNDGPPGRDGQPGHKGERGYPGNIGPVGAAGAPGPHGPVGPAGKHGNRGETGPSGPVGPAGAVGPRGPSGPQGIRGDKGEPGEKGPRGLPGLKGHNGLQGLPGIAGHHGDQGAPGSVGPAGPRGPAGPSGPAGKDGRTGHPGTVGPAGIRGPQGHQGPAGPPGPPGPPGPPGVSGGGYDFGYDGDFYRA

| Molecule | binding to collagen in vitro (collagen type I [1]) | Bmax (collagen type I [2]) [attomoles] | Kd (collagen type I [2]) [nM] |
| --- | --- | --- | --- |
| ^123I-labelled Ac-CKELNVLYTC-NH2 (disulfide 1-10; also: 123I-labelled) [Imaging Agent 36] | bind with high affinity to collagen in vitro | – | – |
| ^123I-labelled KELNVLYT-NH2 (also: 123I-labelled) [Imaging Agent 35] | bind with high affinity to collagen in vitro | – | – |
| ^123I-labelled Ac-KELNLVYT-NH2 (also: 123I-labelled) [Imaging Agent 29] | bind with high affinity to collagen in vitro | – | – |
| {99mTc‑Chelate II}-ANAALKAGELYKCILY-NH2 (also: 99mTc complex) [Imaging Agent 1: [99mTc-Chelate II]-…-NH2] | – | 1070 | 194 |
